In patent US20230028110A1 (ADAPTATE BIOTHERAPEUTICS, published 2023):
Changes are numbered by the printed parent chain. Each block holds one binder with its values, some of them ahead of it.

Columns and labels:
[1] = biological target: T1, L1 (DV1-GV4), soluble human Vδ1/Vγ4 γδ TCR heterodimer in leucine zipper format (human); test: DELFIA, 100 nM biotinylated L1
T1 construct: Biotinylated in the DELFIA ranking; also called Antigen L1 (TRDV1/TRGV4); human DV1-GV4; not shown: gamma chain: Vγ4 (TRGV4) domain on a TCR constant region, leucine zipper, histidine tag

[2] = biological target: T1, L1 (DV1-GV4), soluble human Vδ1/Vγ4 γδ …; test: DELFIA ELISA, human antigen; heat map cell of the clone

T1 sequence (main, as listed by the source): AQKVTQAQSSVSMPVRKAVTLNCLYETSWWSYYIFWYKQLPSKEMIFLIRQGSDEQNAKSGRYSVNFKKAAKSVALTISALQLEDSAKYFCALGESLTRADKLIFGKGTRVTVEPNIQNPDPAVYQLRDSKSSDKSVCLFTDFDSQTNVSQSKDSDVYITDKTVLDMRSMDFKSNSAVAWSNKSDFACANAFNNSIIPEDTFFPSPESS

DELFIA signal at 100 nM L1 [1]: 65300 fluorescence units
B1: 1251_P02_C05 (antibody, IgG1, V domains shown)
VH: EVQLLESGGGLVQPGGSLRLSCAASGFTFSSYAMSWVRQAPGKGLEWVSAISGGGGTTYSSDSVKGRFTISRDNSKNTLYLQMNSLRAEDTAVYYCARDSGVAFDIWGQGTLVTVSS
VL: DIQMTQSPSFLSASVGDRVTITCRASQNIRTWLAWYQQKPGRAPKLLIYDASSLESGVPSRFSGSGSGTDFTLTISSLQPEDFATYYCQQFKRYPPTFGLGTKVEIK
notes: IgG1

DELFIA signal at 100 nM L1 [1]: 1980 fluorescence units
B2: 1252_P01_C08 (antibody, IgG1, V domains shown)
VH: EVQLLESGGGLVQPGRSLRLSCAASGFTVSSNYMSWVRQAPGKGLEWVSVIYSGGSTYYADSVKGRFTISRDNSKNTLYLQMNSLRAEDTAVYYCASPIELGAFDIWGQGTLVTVSS
VL: SSYELTQPPSVSVAPGKTARITCGGNNIGSQSVHWYQQKPGQAPMLVIYYDSDRPSGIPERFSGSNSGNTATLTISRVEAGDEADYYCQVWDSSSDHVVFGGGTKLTVL
notes: IgG1, lambda light chain

DELFIA signal at 100 nM L1 [1]: 137000 fluorescence units
B3: 1141_P01_E01 (antibody, IgG1, V domains shown)
VH: QVQLVQSGAEVKKPGESLKISCKGSGYSFTSYWIGWVRQMPGKGLEWMGIIYPGDSDTRYSPSFQGQVTISADKSISTAYLQWSSLKASDTAMYYCARHQVDTRTADYWGQGTLVTVSS
VL: SQSALTQPASVSGSPGQSVTISCTGTRSDVGGYNYVSWYQHHPGKAPKLMIYEVSNRPSGVSNRFSGSKSGNTASLTISGLQAEDEADYYCSSYTSTSTLVFGGGTKLTVL
notes: IgG1, lambda light chain

ELISA signal (heat map) [2]: 27800
B4: ADT1-7-22 (antibody, IgG1, V domains shown)
VH: EVQLVESGGGLVKPGGSLRLSCAASGFTFSDYYMSWIRQAPGKGLEWVSYISSSGSTIYYADSVKGRFTISRDNAKNSLYLQMNSLRAEDTAVYYCARDDYNDAFDIWGQGTLVTVSS
VL: DIQMTQSPSSLSASVGDRVTIACRAGQSIGTYLNWYQQKPGKAPKLLIYVASSLQSGVPSRFSGSGSGTEFTLTISSLQPEDFATYYCQQSASELLTFGRGTKVEIK
notes: IgG1

ELISA signal (heat map) [2]: 37600
B5: ADT1-7-42 (antibody, IgG1, V domains shown)
VH: B4 VH with N102E
VL: B4 VL with A92S
notes: IgG1

ELISA signal (heat map) [2]: 34800
B6: ADT1-7-18 (antibody, IgG1, V domains shown)
VH: B4 VH with D99V, D100S, N102D
VL: B4 VL with A25V
notes: IgG1

DELFIA signal at 100 nM L1 [1]: 29200 fluorescence units
B7: 1138_P01_B09 (antibody, IgG1, V domains shown)
VH: B4 VH with V5L, D99H, D100S, Y101W, N102S
VL: DIQMTQSPSSLSASVGDRVTITCQASQDISNYLNWYQQKPGKAPKLLIYDASNLETGVPSRFSGSGSGTDFTLTISSLQPEDFATYYCQQSYSTPLTFGGGTKVEIK
notes: IgG1

ELISA signal (heat map) [2]: 30400
B8: ADT1-7-15 (antibody, IgG1, V domains shown)
VH: B4 VH
VL: B4 VL with S93D, E94T
notes: IgG1

ELISA signal (heat map) [2]: 34700
B9: ADT1-7-19 (antibody, IgG1, V domains shown)
VH: B4 VH with D99I, N102E
VL: B4 VL
notes: IgG1

ELISA signal (heat map) [2]: 30200
B10: ADT1-7-17 (antibody, IgG1, V domains shown)
VH: B4 VH with D99I, N102E
VL: B4 VL with A92G
notes: IgG1

ELISA signal (heat map) [2]: 30900
B11: ADT1-7-10 (antibody, IgG1, V domains shown)
VH: B4 VH
VL: B4 VL with S91T, E94T
notes: IgG1

ELISA signal (heat map) [2]: 34400
B12: ADT1-7-23 (antibody, IgG1, V domains shown)
VH: B4 VH with D99V, D103E
VL: B4 VL with A92Y, E94G, L96D
notes: IgG1
